Residue numbers refer to the chain shown, from its start.
How the values were obtained:
p72 (1-600) = molecular target: T1, p72 (1-600)
T1 chain: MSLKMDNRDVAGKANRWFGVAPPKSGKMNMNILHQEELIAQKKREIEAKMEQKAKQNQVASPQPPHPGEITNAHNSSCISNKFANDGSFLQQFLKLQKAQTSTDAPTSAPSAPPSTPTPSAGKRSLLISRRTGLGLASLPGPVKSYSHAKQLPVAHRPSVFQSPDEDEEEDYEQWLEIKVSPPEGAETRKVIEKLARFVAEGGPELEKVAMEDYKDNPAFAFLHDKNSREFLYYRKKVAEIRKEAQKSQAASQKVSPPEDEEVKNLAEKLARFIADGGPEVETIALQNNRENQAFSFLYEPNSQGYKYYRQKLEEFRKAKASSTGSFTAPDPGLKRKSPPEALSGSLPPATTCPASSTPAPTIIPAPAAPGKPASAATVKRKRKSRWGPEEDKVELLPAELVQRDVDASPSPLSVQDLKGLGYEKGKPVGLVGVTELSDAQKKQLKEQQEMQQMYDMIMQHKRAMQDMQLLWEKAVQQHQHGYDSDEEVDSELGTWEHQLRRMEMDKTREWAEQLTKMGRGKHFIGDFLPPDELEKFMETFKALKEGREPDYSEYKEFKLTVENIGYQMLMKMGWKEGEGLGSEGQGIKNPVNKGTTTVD

p72 (Cari) = molecular target: T2, p72 (Cari)
T2 chain: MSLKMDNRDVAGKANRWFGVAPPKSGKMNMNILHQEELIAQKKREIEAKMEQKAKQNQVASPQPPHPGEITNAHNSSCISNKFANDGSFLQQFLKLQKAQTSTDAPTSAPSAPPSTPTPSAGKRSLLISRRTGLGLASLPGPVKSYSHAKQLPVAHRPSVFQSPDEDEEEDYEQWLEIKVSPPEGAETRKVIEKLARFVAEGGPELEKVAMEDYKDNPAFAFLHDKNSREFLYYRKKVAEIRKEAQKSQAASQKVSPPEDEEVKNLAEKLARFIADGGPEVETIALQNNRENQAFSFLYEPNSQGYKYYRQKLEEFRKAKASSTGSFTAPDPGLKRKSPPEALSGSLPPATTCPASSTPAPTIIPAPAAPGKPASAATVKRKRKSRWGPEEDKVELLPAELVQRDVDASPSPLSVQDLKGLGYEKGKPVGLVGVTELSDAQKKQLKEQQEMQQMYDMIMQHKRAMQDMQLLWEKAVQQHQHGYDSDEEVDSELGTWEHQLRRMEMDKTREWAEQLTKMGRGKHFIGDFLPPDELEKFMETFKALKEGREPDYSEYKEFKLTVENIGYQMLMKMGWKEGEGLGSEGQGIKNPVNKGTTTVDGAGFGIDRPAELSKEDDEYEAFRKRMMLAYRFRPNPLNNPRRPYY

p72 (D600E) = molecular target: T3, p72 (D600E)
T3 chain: T2 chain with D600E

B1: recombinant active caspase-8 (protein)
chain 1: EELCGVMTISDSPREQDSESQTLDKVYQMKSKPRGYCLIINNHNFAKAREKVPKLHSIRDRNGTHLDAGALTTTFEELHFEIKPHHDCTVEQIYEILKIYQLMDHSNMDCFICCILSHGDKGIIYGTDGQEAPIYELTSQFTGLKCPSLAGKPKVFFI
chain 2: GIPVETDSEEQPYLEMDLSSPQTRYIPDEADFLLGMATVNNCVSYRNPAEGTWYIQSLCQSLRERCPRGDDILTILTEVNYEVSNKDDKKNMGKQ
cleavage of in vitro translated 35S-labeled Cari 1-600 by recombinant active caspase-8 (SDS-PAGE, phospho-imaging) (p72 (1-600)): co-migrates with the 68 kDa fragment produced after cleavage of the wild type Cari and is not further cleaved by addition of caspase-8
cleavage of in vitro translated 35S-labeled Cari by recombinant active caspase-8 (SDS-PAGE, phospho-imaging) (p72 (Cari)): This band disappears after addition of activated caspase-8 for 1 hour and a new smaller fragment corresponding to 68 kDa appears (lane 4)
cleavage of in vitro translated 35S-labeled Cari D600E by recombinant active caspase-8 (SDS-PAGE, phospho-imaging) (p72 (D600E)): the same protein profile of Cari D600E mutant is observed in the presence or the absence of caspase-8
